From US20140105914A1 (ANTITOPE, published 2014) come the findings set out here.

Assay [1] addresses T1, human CTLA4 expressed on the surface of T-cells (human, UniProt P16410 36-223).
T1 construct: whole, on cells; For flow cytometry the cells were fixed and treated with saponin; Also used as the target in the PBMC functional assays; also called CTLA4 expressed on T cells
T1 sequence (looked up): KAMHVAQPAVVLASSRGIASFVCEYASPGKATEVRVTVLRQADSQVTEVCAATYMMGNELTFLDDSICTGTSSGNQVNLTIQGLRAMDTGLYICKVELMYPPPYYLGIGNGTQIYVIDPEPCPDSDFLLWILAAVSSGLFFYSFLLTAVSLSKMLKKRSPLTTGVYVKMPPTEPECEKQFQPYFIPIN
The assay can be described thus: flow cytometry on stimulated human CD4+ T cells, antibody at 5 ug/ml. How it is done:
In order to determine whether the lead monoclonal antibodies bound to CTLA4 expressed on the surface of T-cells, a flow cytometric analysis was performed. Human peripheral T cells were isolated from human PBMC (peripheral blood mononuclear cells) and stimulated to enhance expression of CTLA4. CD4+ cells were purified from PBMC using a CD4⁺ T Cell Isolation Kit (Miltenyi Biotec, Bisley, UK), plated out in a 24 well plate (1×10⁶ cells/well) in AIM-V Medium (Invitrogen, Paisley, UK) and incubated at 37° C. overnight. Cells were stimulated with lonomycin (1 μg/ml) and PMA (phorbol 12-myristate 13-acetate) (50 ng/ml) and incubated 4 h at 37° C. Cells were washed once in AIM-V medium, fixed in PBS containing 2% formaldehyde for 15 min, and resuspended in FACS buffer (D-PBS containing 1% BSA, 0.05% sodium azide and 0.1% Saponin) at 2×10⁶ cells/ml and incubated 30 min at 4° C.
2×10⁵ cells were stained using either a 1 in 10 dilution of anti-CTLA4-PE conjugated antibody (BNI3) (Abcam, Cambridge, UK) as a positive control or with 5 μg/ml of individual anti-CTLA4 monoclonal antibodies together with a 1 in 50 dilution of anti-mouse IgG-PE conjugated antibody (Sigma). Mouse IgG (Sigma) was also included as separate controls for the different murine isotypes present within the lead monoclonal antibodies. […] Instrument settings were determined by analysis of relevant isotype control antibodies. […]
A general note: In flow cytometry, cells or beads pass a laser one at a time.

In assay [2] the target is T2, Recombinant CTLA4-fusion protein comprising the extracellular domain of human CTLA4 fused to the human IgG1 … (human, UniProt P16410 36-161).
T2 construct: extracellular domain; Bought reagent; Coated on ELISA plates at 0.5 ug/ml; also called CTLA4-Fc; CTLA4-Ig; not shown: human IgG1 constant domain (Fc); a Factor Xa site lies between CTLA4 and Fc, since the fusion was cle
T2 sequence (looked up): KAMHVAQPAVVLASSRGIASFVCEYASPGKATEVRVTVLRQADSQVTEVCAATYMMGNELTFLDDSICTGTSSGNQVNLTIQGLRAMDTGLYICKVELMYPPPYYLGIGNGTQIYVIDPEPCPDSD
Nature of the assay: ELISA on coated CTLA4-Fc. Background: An ELISA detects its analyte on a solid surface through an enzyme-linked reagent.

Assay [3] concerns the target T1, human CTLA4 expressed on the surface of …. The assay can be described thus: flow cytometry on CTLA4 expressed on T cells.
The target in assay [4] is T2, Recombinant CTLA4-fusion protein …. The assay can be described thus: CTLA4 binding ELISA on coated CTLA4-Fc.
For assay [5], the target named is T1, human CTLA4 expressed on the surface of …. The assay can be described thus: cell-based or functional assay.

B1: murine monoclonal antibody 8H5 (subclone 8H5-1B1) (antibody, V domains shown)
VH: QVQLQQSGDDLVKPGASVKLSCKASGYTFTSYWINWIKQRPGQGLEWIGRIAPGSGTTYYNEVFKGKATLTVDKYSSTAYIQLSSLSSEDSAVYFCARGDYGSYWGQGTLVTVSS
VL: QIVLTQSPAIMSASPGEKVTMTCSASSSISYMHWFQQKPGTSPKRWIYDTSKLASGVPARFSGSGSGTSYSLTINSMEAEDAATYYCHQRTSYPLTFGAGTKLELK
notes: Mouse hybridoma antibody with a kappa light chain; also called 8H5-1A1
On to B1, for which the binding result in assay [1] and in assay [2] was “binds” throughout.

B2: chimeric 8H5 human IgG1 antibody (antibody, V domains shown)
VH: QVQLQQSGDDLVKPGASVKLSCKASGYTFTSYWINWIKQRPGQGLEWIGRIAPGSGTTYYNEVFKGKATLTVDKYSSTAYIQLSSLSSEDSAVYFCARGDYGSYWGQGTLVTVSS
VL: QIVLTQSPAIMSASPGEKVTMTCSASSSISYMHWFQQKPGTSPKRWIYDTSKLASGVPARFSGSGSGTSYSLTINSMEAEDAATYYCHQRTSYPLTFGAGTKLELK
modifications: Biotinylated when used as the labelled competitor in Example 6.
notes: Gamma 4 versions were also cloned; also called 8H5 chimeric antibody; h8H5 parent IgG1
For B2, the binding result in assay [3] and in assay [4] was “binds” throughout.

B3: murine monoclonal antibody 3B10 (subclone 3B10-4F7) (antibody, V domains shown)
VH: EVQLQQFGAELVKPGASVKMSCKASGYTFTDYNMDWVRQSHGKSLEWIGNINPNSESTSYNQKFKGKATLTVDKSSSTAYMELRSLTSDDTAVYYCTRDGNRYDAWFAYWGQGTLVTVSS
VL: QIVLTQSPAIMSASPGEKVTMTCSASSSVTYMHWFQQKPGTSPKLWIYSTSILASGVPARFSGSGSGTSYSLTISRMEAEDAATYYCQQRTSYPLTFGTGTKLELK
notes: Mouse hybridoma antibody with a kappa light chain; also called 3B10-6E3
In the case of B3, the binding result in assay [1] and in assay [2] was “binds” in each case.

B4: chimeric 3B10 human IgG1 antibody (antibody, V domains shown)
VH: EVQLQQFGAELVKPGASVKMSCKASGYTFTDYNMDWVRQSHGKSLEWIGNINPNSESTSYNQKFKGKATLTVDKSSSTAYMELRSLTSDDTAVYYCTRDGNRYDAWFAYWGQGTLVTVSS
VL: QIVLTQSPAIMSASPGEKVTMTCSASSSVTYMHWFQQKPGTSPKLWIYSTSILASGVPARFSGSGSGTSYSLTISRMEAEDAATYYCQQRTSYPLTFGTGTKLELK
modifications: Biotinylated when used as the labelled competitor in Example 6.
notes: Gamma 4 versions were also cloned; also called 3B10 chimeric antibody; parental 3B10 chimeric antibody
B4: the binding result in assay [3] and in assay [4] was “binds” each time.

B5: lead humanised variant VH5/VK4 anti-CTLA4 antibody (antibody, V domains shown)
VH: QVQLVQSGAELKKPGASVKVSCKASGYTFTSYWINWIRQAPGQGLEWIGRIAPGSGTTYYNEVFKGRVTITVDKSTSTAYMELSSLRSEDTAVYFCARGDYGSYWGQGTLVTVSS
VL: EIVLTQSPATLSLSPGERATLSCSASSSISYMHWFQQRPGQSPRRWIYDTSKLASGVPARFSGSGSGTDYTLTISSLEPEDFATYYCHQRTSYPLTFGQGTKLEIKR
B5: in assay [5], the “IFN-gamma secretion in human mixed lymphocyte reaction (T cell activation), antibody at 150 ug/ml, compared to MDX010” value was determined as 2 fold.
